Data set [1] concerns the target PCNA (Homo sapiens) (UniProt P12004). As to conditions: cited from earlier work.
Data set [2] has the same target. As to conditions: cited from earlier work. The source holds these as a separate data set.
Data set [3] concerns the molecule itself. Put plainly: native gel or EMSA; 12% native PAGE, 80 V for 5 h at 4°C, 25 mM Tris base, 192 mM glycine, pH 8.8, Coomassie staining; migration compared with carbonic anhydrase or with the mutant. (A gel shift assay detects complexes by their altered migration in electrophoresis.)
Data set [4] deals with the molecule itself. Put plainly: cross-linking; 1-5 μg of protein in 20 mM Hepes pH 7.5, 0.5% formaldehyde, 30 min at 25°C, 12% SDS-PAGE, Coomassie.
Data set [5] concerns the molecule itself. Put plainly: ITC; p12 (10 μM) in the cell, p12 (120 μM) in the syringe, 30°C, 20 mM Hepes pH 7.4, 150 mM NaCl, single-site model; dimer to monomers. (In general: In ITC the heat of successive injections is recorded.)
Data set [6] deals with T1, human PCNA, wild type, purified (human, UniProt P12004 1-261).
T1 construct: Proliferating cell nuclear antigen, human; amplified from cDNA of HeLa total RNA; Treated as a trimer in the ITC analysis; also called hPCNA; proliferating cell nuclear antigen; source: E. coli BL21 DE3, purified (expressed as GST fusion, glutathione-sepharose)
Put plainly: ITC; p12 (10 μM) in the cell, PCNA (120 μM) in the syringe, 25°C, 20 mM Hepes pH 7.4, 150 mM NaCl, single-site model; p12 taken as a dimer and PCNA as a trimer. As to conditions: both partners purified.

Positions count from the first letter of the chain named. In names and notes the source's numbering stands. Where two headings read alike, the source gives them in different places.

As usually defined, the Kd is the constant that tells how readily two partners part at equilibrium. In general, stoichiometry N refers to a count of units in the complex or per binding partner.

Sequence of PCNA (Homo sapiens) (P12004 whole entry): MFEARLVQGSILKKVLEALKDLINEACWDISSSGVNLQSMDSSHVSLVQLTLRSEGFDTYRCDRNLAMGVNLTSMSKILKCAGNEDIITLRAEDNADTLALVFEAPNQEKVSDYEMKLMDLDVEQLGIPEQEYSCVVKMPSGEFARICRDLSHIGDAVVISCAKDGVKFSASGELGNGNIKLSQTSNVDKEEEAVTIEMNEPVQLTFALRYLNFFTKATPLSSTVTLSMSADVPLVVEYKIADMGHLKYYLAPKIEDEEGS
T1 sequence (P12004 whole entry, the tested form may be a part): as the sequence (P12004 whole entry) above

With “DNA polymerase delta holoenzyme (from UniProt P28340)”, the Kd with PCNA (Homo sapiens) [1] was 7.1 nM.

As for “DNA polymerase delta core (from UniProt P28340)”, the Kd in the data set with PCNA (Homo sapiens) [2] is 73 nM.

B1: Cdm1 of Schizosaccharomyces pombe, wild type, purified (natural protein, S. pombe, UniProt O59835 1-160, looked up)
chain: MKKRTTQAKKSGQNTNIRDVFPHVVRSNSSQSHIGKKVSSEQSPTPDVTITTKTLDERIKEDDELSKEVEEAWNQIMAERISEPIHCENITKVEFILHHFDTTARYGPYLGMTRMQRWKRAKNFNLNPPETVGKILMLEEADEENRKRESLFYDLQTIPG
notes: Cdm1, fourth subunit of DNA polymerase delta, S. pombe; 160 aa, 18.6 kD; PCR-amplified from genomic DNA; also called wild-type Cdm1; source: E. coli BL21 DE3, purified (bacterial overexpression from pNA716)
On to B1, for which the binding result in data set [3] was “binds”.

B2: p12 subunit of human DNA polymerase delta, wild type, purified, GST tag cleaved off (natural protein, UniProt Q9HCU8 1-107, looked up)
chain: MGRKRLITDSYPVVKRREGPAGHSKGELAPELGEEPQPRDEEEAELELLRQFDLAWQYGPCTGITRLQRWCRAKQMGLEPPPEVWQVLKTHPGDPRFQCSLWHLYPL
notes: DNA polymerase delta subunit 4 (p12), human; PCR product from pCOLA-hPold234; also called untagged p12; wild-type p12; source: E. coli BL21 DE3, purified (glutathione-sepharose; GST cleaved by PreScission protease); not shown: GST, N-terminal, cleaved
With B2, the “stoichiometry N” value in data set [4] is 2; in data set [5], ~0.6. Further, the values for the Kd in data set [5] and in data set [6] were ~146 nM and 10000 nM, respectively. For the same molecule, the dH in data set [5] was -1.82 kcal/mol.

B3: p12 L104A, Y105A mutant, purified, GST tag cleaved off (natural protein, human, UniProt Q9HCU8 1-107, looked up)
chain: B2 chain with L104A, Y105A
notes: DNA polymerase delta subunit 4 (p12), human; PCR product from pCOLA-hPold234; also called PIP-motif p12 mutant; source: E. coli BL21 DE3, purified (glutathione-sepharose; GST cleaved by PreScission protease); not shown: GST, N-terminal, cleaved
For B3, in data set [4], the “stoichiometry N” value was found to be 2.

Source of the values: PMC6424025, “Human DNA polymerase delta is a pentameric holoenzyme with a dimeric p12 subunit” (Life Science Alliance, 2019).
